Experiment: soluble fraction after stress (log2 fold change); higher = more stays soluble; pooled small domains, quantitative proteomics
Settings: stress: 75 degC
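Further: 20 min heating vs room temperature control held 20 min.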

| Sequence | soluble fraction (log2) |
| --- | --- |
| HMSDTMTVTNVKYAIYLRSTPSEASDANIIMEIPVGSKVTYLDTPNNTFYKISYGGTVGYSKQIYLTF | -3.69 |
| HMTKVKIDRLFSIVQMLVNRKSVTAKELADYFNVSVRTIYRDIEILSANGIPIYATQGKGGGISILEN | -1.74 |
| HMRRRVIGTLVMGDMSTDFKVLADGHTHRVLAAAISFHKAKPGDEVVILVPKSAPSKWAAVEHVMK | 0.033 |
| HMNYTYTVPEGIRYLRADKALALAFPDHSRTALQRAFDSGLVTLRGVAIKRDQSVTALDTLEFAMPDI | -0.981 |
| HMNNIPFIITDERLNVIQSHLVPREVLDHPDRLRRQIDRFTEENQPKTVNYWWGPEHRHIIFYGKSK | 0.377 |
| HMQVTIGADLAEHAARLDVQISDVVKLIKSGVSEGEIKVGLTKLETRLAHPELALVENKLAYLKALIAES | -2.27 |
| HMKKLTAEEIQEAKDILEKIQEIPNFKKIFGDDTIKALENSTKTGVLLPDNIISKIHTLMIRFGIK | -0.202 |
| HMSIMNLSEKIVVLRKSNGMSQEELAEKLYVSRQAVSRWEMGTAVPDSTNILQLGKLFHVTTDYLLNDEYE | -3.36 |
| HMIAANMTISQRIAAALAEYGVMSVKDIAQEVLGATDKKDTEKIRVTLTRDHGKRFRTYSDGTWSLKDWRP | -2.19 |
| HMSAAIGEAVIATDEINVRSGPGLSHEIVSVVSRNESYPILEERGDWVQIQLNGGQKGWVVSWLIKKKS | -0.665 |
| HMQGENDVTIDPKKLTIGDLAKEISKIEDSEELNNILVAEKEGKGRKGAINAITERIENVSGGTG | 0.0455 |
| HMVKPQANTIYKEYIKYRANLQNKNEFLSFSEYAKQKHNLEQMSEIMVDANLKEEMLETLKEMS | -0.0266 |
| HMRTIVSELNDIKGISDASAKKLLIRYGSFEAVREAVMKHEEEFELDMGKRITGALTRYFYEE | -1.78 |
| HMIENPGQTFERIAGKITRTLRTGPLRIQQLDLLFSESGEQVMDVLRAMAENGEILIKDDTIQWNGHN | -0.246 |
| HMELVEVGDLTGLTVEQAENVLKNSNISISIDKYDESDKYEKDQIISQNPQNKKVKKGTAIHVVLSNGP | 0.527 |
| HMEVQVGKQVRAFRETLGMTVQQFAERTGFSAALLAQIENRMVSPSLGTLVKIANTFGTTVSSFIG | -0.0249 |
| HMNMMIIHVNGEKYSFQEPITISELILKLELDSRKIAIEYNLEILPRSLFEITSIKNGDKIEIVHFI | -3.43 |
| HMVTPPMVVVDVQGEVKTPGVYHLPTNSRVNDAIKAAGGPKQSADLSYINQARMVKDGEQIYVEKKL | 0.0962 |
| HMATYDIDALKVDLPSAKELAQFVYDKTDGLVSLDLIGKPKEEQYIVAKNALEGKKVPAEYLTGFNPY | 0.702 |
| HMFINTVELGRAIKRRREELGLSLRDVADVTNVSASTLSRIENGTGKPDADNIARLTGWLDMPIDRVM | -0.161 |

| Sequence | soluble fraction (log2) |
| --- | --- |
| HMGMIRFSKEEQMLMMLYSPGSRLGLIAELESMKLQLNSRERKLRNLAESVLKKLEQITDEEFMQFDF | -2.19 |
| HMSRSKLNRLDKIKKMLIAQTGISIKEFSASLNVSEITIRRDLNLLEEQGFIRLVNGVAIYRM | -1.75 |
| HMDTVEFPVQVNGKVRGKITVAADAGKDAIETAALADEKVLAFLDGATPKKVIVVPGKLVNLVVQPG | 0.62 |
| HMPQLSNEEQKIVDALEGSDGKQINLITVETNIPMARLMSVLFEMEMRGIVKSLNGARYKLN | -1.3 |
| HMSSKSLAALSPQEYRLLPLVAEGKTNKEIASALALSDKTVKNYLANIFSKLGITRRTQAATLYARAL | -0.338 |
| HMAHILDLMELKQILRLHMDGLSNRRISDTLGIHRNTINSYVSQFKASKHGIEELLKLSDYELAQLFP | -2.49 |
| HMGSFFSKATAPVRTTGGDGLYKHGSIWFNTSTGRLFVYIPDDRYTGLLDTHNGDIGYWVDVS | -2.53 |
| HMAWAVDVGVVGLFPGKAVLVIDGGAPRTVPVGANVGGVRLLAVDQGSATVEIGGKRQRLAIGQHAH | -1.69 |
| HMLKDININVTGLDQISNAKLINNLNLLKMNNLFFLDEKKIKKILNSNNLIEKFFIFKKYPSTLDIKVYKT | 0.177 |
| HMRSPVDALSNRELQVLQMVGRGLSSRQVAEALHLSVKTVEAHRQRIKGKLGLRTGAQLVQFAANWVTG | -1.75 |
| HMIDLPDIDIDFAKRTGVLEHITHTPARLETGKQHNTGVYFTDIPRGVDGLATMDHKRAEQLGYFKLDML | 0.0214 |
| HMLRRNQVQSQVIPRENGSYVVELQLRDDVDSILRLELTAATEAMARDLADRFRQDPEGVYTRLLSALY | -2.22 |
| HMDNIGKTLGQNQTRQYKVAYAEAAKLPAIIMGLVPLPKPPVVDERLRSLYVTATPEQHRQIETLMNRI | -0.114 |
| HMYSDQRMEIFLEHLPDFIEQLSHKHVTRQMVWEDYRMIYPDGYGKSQFFFHLAQNLKAQKP | -3.21 |
| HMGTSRVQSILFDQSQWTINRAVHWLNTHHFISTKIDKTDKYLRFRQFDPNPDSHHATKRTSQGITFILE | -4.37 |
| HMTSPELIELGERIRKRRQEMNLSQEALAEKAGISINTVSRVEGGQTAMSIEIFRKMIEILETDANGL | -0.586 |
| HMGAEWTEMRVWTSTSGSKVTAEASSLTNGQVTLETKSGKRITLSIRKLVEADQKFLEAHFSK | -1.33 |
| HMKISDTITEKILTDNNFSMELAKKIGIQQGSLLSSIRRNRDSRILRLWEAVMFYKEQGYTEEEIFTDY | -2.61 |
| HMDETPESIFAKANELYPKYIKYFYTEQEYYSKVEEYINLYEFQKNSTYILGKDLEEFLEEYITNKQ | -1.61 |

— the domain aggregation screens of Martell et al. (2025)
